Measured values as given in IntAct's records for PubMed 19494114.

B1: Receptor-type tyrosine-protein phosphatase eta (Homo sapiens), Q12913 (parent)
chain: MKPAAREARLPPRSPGLRWALPLLLLLLRLGQILCAGGTPSPIPDPSVATVATGENGITQISSTAESFHKQNGTGTPQVETNTSEDGESSGANDSLRTPEQGSNGTDGASQKTPSSTGPSPVFDIKAVSISPTNVILTWKSNDTAASEYKYVVKHKMENEKTITVVHQPWCNITGLRPATSYVFSITPGIGNETWGDPRVIKVITEPIPVSDLRVALTGVRKAALSWSNGNGTASCRVLLESIGSHEELTQDSRLQVNISGLKPGVQYNINPYLLQSNKTKGDPLGTEGGLDASNTERSRAGSPTAPVHDESLVGPVDPSSGQQSRDTEVLLVGLEPGTRYNATVYSQAANGTEGQPQAIEFRTNAIQVFDVTAVNISATSLTLIWKVSDNESSSNYTYKIHVAGETDSSNLNVSEPRAVIPGLRSSTFYNITVCPVLGDIEGTPGFLQVHTPPVPVSDFRVTVVSTTEIGLAWSSHDAESFQMHITQEGAGNSRVEITTNQSIIIGGLFPGTKYCFEIVPKGPNGTEGASRTVCNRTVPSAVFDIHVVYVTTTEMWLDWKSPDGASEYVYHLVIESKHGSNHTSTYDKAITLQGLIPGTLYNITISPEVDHVWGDPNSTAQYTRPSNVSNIDVSTNTTAATLSWQNFDDASPTYSYCLLIEKAGNSSNATQVVTDIGITDATVTELIPGSSYTVEIFAQVGDGIKSLEPGRKSFCTDPASMASFDCEVVPKEPALVLKWTCPPGANAGFELEVSSGAWNNATHLESCSSENGTEYRTEVTYLNFSTSYNISITTVSCGKMAAPTRNTCTTGITDPPPPDGSPNITSVSHNSVKVKFSGFEASHGPIKAYAVILTTGEAGHPSADVLKYTYEDFKKGASDTYVTYLIRTEEKGRSQSLSEVLKYEIDVGNESTTLGYYNGKLEPLGSYRACVAGFTNITFHPQNKGLIDGAESYVSFSRYSDAVSLPQDPGVICGAVFGCIFGALVIVTVGGFIFWRKKRKDAKNNEVSFSQIKPKKSKLIRVENFEAYFKKQQADSNCGFAEEYEDLKLVGISQPKYAAELAENRGKNRYNNVLPYDISRVKLSVQTHSTDDYINANYMPGYHSKKDFIATQGPLPNTLKDFWRMVWEKNVYAIIMLTKCVEQGRTKCEEYWPSKQAQDYGDITVAMTSEIVLPEWTIRDFTVKNIQTSESHPLRQFHFTSWPDHGVPDTTDLLINFRYLVRDYMKQSPPESPILVHCSAGVGRTGTFIAIDRLIYQIENENTVDVYGIVYDLRMHRPLMVQTEDQYVFLNQCVLDIVRSQKDSKVDLIYQNTTAMTIYENLAPVTTFGKTNGYIA

Variants of: B1
Settings: with mk03_human MAPK3, P27361
Chain of mk03_human MAPK3, P27361 (P27361 whole entry): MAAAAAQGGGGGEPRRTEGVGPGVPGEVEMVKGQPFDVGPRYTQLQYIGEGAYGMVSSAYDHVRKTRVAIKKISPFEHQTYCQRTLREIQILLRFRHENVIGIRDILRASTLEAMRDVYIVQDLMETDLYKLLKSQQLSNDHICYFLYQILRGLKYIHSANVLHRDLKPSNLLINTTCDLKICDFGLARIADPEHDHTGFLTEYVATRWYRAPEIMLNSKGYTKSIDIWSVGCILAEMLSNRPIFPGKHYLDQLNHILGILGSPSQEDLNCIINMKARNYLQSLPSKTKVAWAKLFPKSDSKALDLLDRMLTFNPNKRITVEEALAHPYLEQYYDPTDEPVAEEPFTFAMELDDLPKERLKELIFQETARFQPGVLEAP

effect of a mutation on the interaction	Variant
decreasing interaction	K1031A
